# B1: AKAP18δ-CFP fusion protein (other)
# chain: MERPAAGEIDANKCDHLSRGEEGTGDLETSPVGSLADLPFAAVDIQDDCGLPDVPQGNVPQGNPKRSKENRGDRNDHVKKRKKAKKDYQPNYFLSIPITNKKITAGIKVLQNSILRQDNRLTKAMVGDGSFHITLLVMQLLNEDEVNIGTDALLELKPFVEEILEGKHLTLPFHGIGTFQGQVGFVKLADGDHVSALLEIAETAKRTFQEKGILAGESRTFKPHLTFMKLSKAPMLWKKGVRKIEPGLYEQFIDHRFGEEILYQIDLCSMLKKKQSNGYYHCESSIVIGEKDRKEPEDAELVRLSKRLVENAVLKAVQQYLEETQNKKQPGEGNSVKAEEGDRNGDGSDNNRK
# notes: Expressed inside transfected HEK293 or CD8 cells (diffuse, cytosolic); also called AKAP186; AKAP188; not shown: cyan-fluorescent protein (CFP) encoded by vector pECFP (BD Biosciences Clontech)
# Molecular target: T1, RIIα-YFP fusion protein (regulatory subunit RIIα of human protein kinase A fused to yellow-fluorescent … (human, UniProt P13861 2-404))
# T1 construct: whole, on cells; Expressed inside transfected HEK293 or CD8 cells (diffuse, cytosolic); also called regulatory RIIα subunit of PKA; not shown: yellow-fluorescent protein (YFP) encoded by vector pEYFP (BD Biosciences Clontech)
# T1 sequence (P13861 2-404): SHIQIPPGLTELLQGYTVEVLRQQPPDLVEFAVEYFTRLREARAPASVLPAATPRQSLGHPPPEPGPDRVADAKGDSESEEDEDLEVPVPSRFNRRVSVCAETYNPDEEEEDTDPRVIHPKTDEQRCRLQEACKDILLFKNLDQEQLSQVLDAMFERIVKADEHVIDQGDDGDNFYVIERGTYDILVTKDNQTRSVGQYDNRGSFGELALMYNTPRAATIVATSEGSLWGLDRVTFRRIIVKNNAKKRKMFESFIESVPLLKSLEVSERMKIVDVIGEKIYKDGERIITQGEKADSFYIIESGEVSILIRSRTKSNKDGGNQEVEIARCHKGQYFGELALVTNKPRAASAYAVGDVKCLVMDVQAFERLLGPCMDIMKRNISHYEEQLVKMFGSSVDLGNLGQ
# Experiment: FRET in two co-transfected HEK293 cells, time 0 min before peptide addition
# Protocol: FRET measurements were performed 24-48 hours after transfection, using an epifluorescence microscope (Axiovert 200M, Carl Zeiss, Jena, Germany). The data were stored using the Openlab 2.25 software (Improvision, Coventry GB). Fluorescence was excited at a wavelength of 425 nm for CFP and 488 nm for YFP. […] Non-specific background fluorescence was determined in a region with no cells and subtracted.
# This peptide inhibits the interaction between AKAP and regulatory PKA subunits in general (Klussmann et al., J. Biol. Chem. 274, 4934-4938, 1999; see schematic diagram in FIGS. 5A and B).
binder,measurement,value
B1,535/480 ratio (FRET signal) prior to addition of S-Ht31,~1.3

# Reference: patent US7863432 (FORSCHUNGSVERBUND BERLIN E V, dated 2011)
